In patent EP1444995A1:

Target: endogenous Translokin of mouse NIH-3T3 cells (mouse) (UniProt Q8CEE0)
Test: cell-based or functional assay

Sequence of UniProt Q8CEE0 (Q8CEE0 whole entry): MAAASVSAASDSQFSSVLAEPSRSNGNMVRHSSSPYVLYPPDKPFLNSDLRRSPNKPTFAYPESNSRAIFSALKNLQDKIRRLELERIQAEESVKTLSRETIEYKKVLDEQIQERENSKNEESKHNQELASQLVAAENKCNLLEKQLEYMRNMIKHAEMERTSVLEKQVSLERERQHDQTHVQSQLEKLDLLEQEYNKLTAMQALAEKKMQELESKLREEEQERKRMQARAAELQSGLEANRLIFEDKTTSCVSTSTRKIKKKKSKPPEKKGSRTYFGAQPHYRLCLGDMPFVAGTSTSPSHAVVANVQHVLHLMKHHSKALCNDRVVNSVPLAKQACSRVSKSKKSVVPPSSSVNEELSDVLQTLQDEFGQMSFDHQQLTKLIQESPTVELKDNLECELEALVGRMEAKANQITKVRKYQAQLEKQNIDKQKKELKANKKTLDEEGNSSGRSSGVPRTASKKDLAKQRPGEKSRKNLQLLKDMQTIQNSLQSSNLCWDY

HA-tagged FGF-2 (18 kDa) (ligand)
FGF-2 nuclear accumulation in NIH-3T3 cells after Translokin siRNA: 80%
